This note sets out measurements from PMC9527803.

This experiment deals with baker's yeast alcohol dehydrogenase (baker's yeast) (UniProt P00330). The experiment can be described thus: native MS; nano-ESI from 0.2 mol/L ammonium acetate, protein 2 to 5 x 10^-6 mol/L, Q Exactive UHMR modified for deposition.

“baker's yeast alcohol dehydrogenase (from UniProt P00330 1-348) (enzyme)” had a stoichiometry N of 4.
